Assay results published in publication PMC5689619.

Tests used:
GST-RAB40C = GST-RAB40C (UniProt Q96S21)
GST-H-Ras = GST-H-Ras (UniProt P01112)

Row | Kcat/KM ratio (catalytic efficiency) of GAP-stimulated GTP hydrolysis, release of inorganic phosphate (GST-RAB40C) | Kcat/KM ratio (catalytic efficiency) of GAP-stimulated GTP hydrolysis, release of inorganic phosphate (GST-H-Ras) | Substance
1 | 114 | 229 | GST-GAP (DAB2IP GAP domain) (domain or fragment)
2 | 66 | 102 | GST-GAP R385L (DAB2IP GAP domain, catalytically defective mutant) (domain or fragment)
